Source: US7056694B1, “DNA encoding peripheral-type benzodiazipine receptor associated protein 7 and applications or methods of use” (Georgetown University, priority 1998, dated 2006)

Tests used:
[1] = biological target: PBR (Mus musculus, UniProt P50637); assay: PK 11195 radioligand binding to PBR interacting with PAP20; conditions: PK11195 as a ligand
Method: ^3H-1-(2-chlorophenyl)-N-methyl-N-(1-methyl-propyl)-3-isoquinolinecarboxamide (PK 11195) (NEN, Boston, Mass.) binding studies were performed as we previously described (Papadopoulos, V. et al., 1990, supra; Garnier, M. et al., 1994, Molecular Pharmacology 45, 201–211). The dissociation constant (Kd) and the number of binding sites (Bmax) were determined by Scatchard plot analysis of the data using the LIGAND program (Munson, P. J. and Rodbard, D., 1980, Anal. Biochem. 107, 220–239).

[2] = biological target: T1, GAL4 (1-147)-PBR fusion (plasmid pGBT9+PBR), mouse peripheral-type benzodiazepine receptor as two-hybrid bait (mouse, UniProt P04386 1-147; P50637 1-169); assay: yeast two-hybrid, His3 reporter (histidine prototrophy), second-round transformation of HF7c carrying pGBT9-PBR
T1 construct: Bait of the yeast two-hybrid screen, expressed in yeast HF7c; also called pGBT-PBR; fusion PBR protein
Source text: The Clontech […] two-hybrid system was applied in this study (detailed in manufacturer's instruction book). Briefly, the yeast reporter host strain HF7c was simultaneously cotransformed with both pGBT-PBR and the mouse testis cDNA library in pGAD10 plasmid by using lithium acetate high-efficiency method (Gietz, D. et al., 1992, *Nucleic Acids Res.* 20, 1425). HIS positive clones were further selected by colony lift filter assay for β-galactosidase activity. Plasmid DNA was rescued in *Escherichia coli* DH5? from yeast cells. Plasmids were retransformed into yeast HF7c cells with plasmid pGBT-PBR to test for histidine prototrophy and β-galactosidase activity (Clontech manual). The cDNA inserts from the positive clones were sequenced. The full length PAP7 cDNA was obtained by using 5' and 3' RACE kit from kit (CLONTECH, Palo Alto, Calif.).
Library plasmids from these transformants were rescued in *E. coli* strain DH5α. Both the His+ phenotype and the expression of β-galactosidase were confirmed by a second-round transformation of strain HF7c carrying pGBT9-PBR (Table 1).

[3] = system: MA-10 cells; assay: Steroid biosynthesis: hCG-stimulated progesterone production in transfected MA-10 cells; assay type: cell-based, mouse; conditions: pSVzeoPAP7 vs pSVzeo empty vector transfectants, hCG 50 ng/ml, dose and time dependent
Method: MA-10 cells were grown in modified Waymouth's MB752/1 medium containing 15% horse serum, as described previously (Papadopoulos, V. et al., 1990, J. Biol. Chem. 265, 3772–3779). Mouse C6 glioma and mouse Y1 adrenal cortical cells were cultured in DMEM and DMEM F12 repectively, with 10% fetal bovine serum. MA10 cells were transiently transfected by electroporation (El Hefnawy, T. et al., 1996, Mol. Cell Endocrinol. 119, 207–217). Each Genepulser cuvette (0.4 cm-gap, BioRad, Hercules, Calif.) contained 8×10^6 cells in 350 μl antibiotic-free complete Waymouth's growth medium (see above), plus 30 μg plasmids DNA in 50 μl of 0.1×TE. Cells in electroporation cuvettes were electro-shocked at 330 V and at a capacitance of 950 μFd generated from Genepulser (BioRad, Hercules, Calif.). The cells were kept immediately on ice for 10 min before plated into 96 well plates.
MA-10 cells were plated into 96-well plate at the density of 2.5×10^4/well for overnight. The cells were stimulated with 50 ng/ml hCG in 0.2 ml/well serum-free medium for 2 hours. The culture medium was collected and tested for progesterone production by RIA. The assay was carried out by using anti-progesterone antisera (ICN, Costa Mesa, Calif.), following the conditions recommended by the manufacturer. […] Radioimmunoassay data was analyzed using the software provided by Wallac (EG&G Wallac, Gaithersburg, Md.). […]

Sequence of PBR (P50637 whole entry): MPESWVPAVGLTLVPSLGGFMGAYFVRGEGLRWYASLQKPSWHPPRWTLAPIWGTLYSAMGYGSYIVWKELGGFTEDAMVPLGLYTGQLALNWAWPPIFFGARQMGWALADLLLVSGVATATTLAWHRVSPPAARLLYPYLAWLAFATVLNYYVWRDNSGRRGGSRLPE

B1: PAP20: PBR associated protein, polypeptide of 196 amino acids, SEQ ID NO:10; predominantly expressed in testis (protein, listed as Mus musculus)
chain: NSRPRRPQKRKRGAEVLAAQIVQKTRLERKKQEASVSKDAPVPTNTKRAKKQEKSPGRIASQSKPPMKKSPQKRKVNVARGRRNTRKQLQPAEKEIALHLQSEISSDGQKDGLNLSTSQQESISMIPKGPPENSVISCDSQALNMLADLALSSAAASIPSCKPRNLPCVSDLPRNNVLLTKENPLLGASDHEYHKG
B1 was tested, and the “affinity of ligand binding to PBR” value [1] was “increased the affinity of ligand binding”.

B2: PAP20 (PBR associated protein 20), two-hybrid clone in pGAD10 (other)
chain: ANFNQSGNIADSSLSFTFTNSSNGPNLITTQTNSQALSQPIASSNVHDNFMNNEITASKIDDGNNSKPLSPGWTDQTAYNAFGITTGMFNTTTMDDVYNYLFDDEDTPPNPKKENSRPRRPQKRKRGAEVLAAQIVQKTRLERKKQEASVSKDAPVPTNTKRAKKQEKSPGRIASQSKPPMKKSPQKRKVNVARGRRNTRKQLQPAEKEIALHLQSEISSDGQKDGLNLSTSQQESISMIPKGPPENSVISCDSQALNMLADLALSSAAASIPSCKPRNLPCVSDLPRNNVLLTKENPLLGASDHEYHKG
notes: range 768-881
B2: binds [2].

B3: PAP7: PBR associated protein 7, SEQ ID NO:7; in transfection a partial sequence including the PBR binding domain in pSVzeo (protein, listed as Mus musculus)
chain: RPRRPKVELFTVVTRVKVVLFLNQLSLCKLVKDGKAFHPTYEEKLKFVALHKQVLLGPYNPDTSPEVGFFDVLGNDRRREWAALGNMSKEDAMVEFVKLLNKCCPLLSAYVASHRIEKEEEEKRRKAEEERRQREEEERERLQKEEEKRKREEEDRLRREEEERRRIEEERLRLEQQKQQIMAALNSQTAVQFQQYAAQQYPGNYEQQQILIRQLQEQHYQQYKHQAEQTQPAQQQAALQKQQEVVMAGASLPASSKVNTAGASDTLSVNGQAKTHTENSEKVLEPEAAEEALENGPKDSLPVIAAPSMWTRPQIKDFKEKIRQDADSVITVRRGEVVTVRVPTHEEGSYLFWEFATDSYDIGFGVYFEWTDSPNAAVSVHVSESSDEEEEEEENVTCEEKAKKNANKPLLDEIVPVYRRDCHEEVYAGSHQYPGRGVYLLKFDNSYSLWRSKSVYYRVYYTR
For B3, the “progesterone production in response to hormonal (hCG) stimulation” value [3] was “significantly reduced” and the “progesterone production in response to hormonal (hCG) stimulation” value ([3]; listed as PAP7 fragment) was “significantly inhibited”.
